Assay results as given in article PMC9352680, “A comprehensive thermodynamic model for RNA binding by the Saccharomyces cerevisiae Pumilio protein PUF4”.
Positions count from the first letter of the chain named. Numbers in names are those of the source.

T1: PUF4 RNA-binding domain (Saccharomyces cerevisiae, UniProt P25339 537-888)
T1 sequence: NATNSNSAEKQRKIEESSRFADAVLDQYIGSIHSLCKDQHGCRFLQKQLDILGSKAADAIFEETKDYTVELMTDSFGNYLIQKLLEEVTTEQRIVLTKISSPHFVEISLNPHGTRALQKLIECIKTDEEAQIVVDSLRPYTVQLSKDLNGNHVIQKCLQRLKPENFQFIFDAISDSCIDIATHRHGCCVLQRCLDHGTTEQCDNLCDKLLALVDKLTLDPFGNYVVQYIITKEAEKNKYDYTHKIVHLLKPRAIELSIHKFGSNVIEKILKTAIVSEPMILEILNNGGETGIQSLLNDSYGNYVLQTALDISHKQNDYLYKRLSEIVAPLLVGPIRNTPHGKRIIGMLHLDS

B1: Ib_S4_P5E.1_K5.1_C5.1_H5.1_A5.1_F5.1_[T8G]_[A10G]_T5.1 (ssRNA)
RNA: UUUGACAACUGAUCGUUCUUUCUUGUAUUAGUGUUCUUUCUCGAUCAGUUGUCUUU
B2: Ib_S4_P5E.1_K5.1_C5.1_H5.1_A5.1_F5.1_[T9G]_[A10C]_T5.1 (ssRNA)
RNA: B1 RNA with G31U, U32G, G33C
B3: Ic_S4_P5E.1_K5.1_C5.1_H5.1_A5.1_F5.1_[T8C]_[A10G]_T5.1 (ssRNA)
RNA: B1 RNA with G31C
B4: Ib_S4_P5E.1_K5.1_C5.1_H5.1_A5.1_F5.1_[T8G]_[A10T]_T5.1 (ssRNA)
RNA: B1 RNA with G33U
B5: Ib_S4_P5E.1_K5.1_C5.1_H5.1_A5.1_F5.1_[T8A]_[A10G]_T5.1 (ssRNA)
RNA: B1 RNA with G31A
B6: Ib_S4_P4E.1_K4.1_C4.1_H4.1_[T1A]_A4.1_[A6T]_F4.1_T4.1 (ssRNA)
RNA: UUUGACAACUGAUCGUUCUUUCUAGUAUUUUAUUCUUUCUCGAUCAGUUGUCUUU
B7: Ia_S4_P4E.1_K4.1_C4.1_H4.1_[G2C]_A4.1_F4.1_T4.1 (ssRNA)
RNA: B6 RNA with A24U, G25C, U29A
B8: Ic_S4_P4E.1_K4.1_C4.1_H4.1_A4.1_[T5C]_[T7A]_F4.1_T4.1 (ssRNA)
RNA: B6 RNA with A24U, U28C, U29A, U30A
B9: Ib_S4_P4E.1_K4.1_C4.1_H4.1_[A4T]_A4.1_[A6C]_F4.1_T4.1 (ssRNA)
RNA: B6 RNA with A24U, A27U, U29C
B10: Ib_S4_P4E.1_K4.1_C4.1_H4.1_[G2C]_A4.1_[A6C]_F4.1_T4.1 (ssRNA)
RNA: B6 RNA with A24U, G25C, U29C
B11: Ib_S4_P4E.1_K4.1_C4.1_H4.1_[G2C]_A4.1_[T7G]_F4.1_T4.1 (ssRNA)
RNA: B6 RNA with A24U, G25C, U29A, U30G
B12: Ib_S4_P4E.1_K4.1_C4.1_H4.1_A4.1_[A6T]_[T7G]_F4.1_T4.1 (ssRNA)
RNA: B6 RNA with A24U, U30G
B13: Ib_S4_P4E.1_K4.1_C4.1_H4.1_A4.1_[T5A]_[T7C]_F4.1_T4.1 (ssRNA)
RNA: B6 RNA with A24U, U28A, U29A, U30C
B14: Ic_S4_P4E.1_K4.1_C4.1_H4.1_A4.1_[A6T]_[T7C]_F4.1_T4.1 (ssRNA)
RNA: B6 RNA with A24U, U30C
B15: Ib_S4_P4E.1_K4.1_C4.1_H4.1_[A4G]_A4.1_[A6G]_F4.1_T4.1 (ssRNA)
RNA: B6 RNA with A24U, A27G, U29G
B16: Ib_S4_P4E.1_K4.1_C4.1_H4.1_[A4C]_A4.1_[A6C]_F4.1_T4.1 (ssRNA)
RNA: B6 RNA with A24U, A27C, U29C
B17: Ib_S4_P4E.1_K4.1_C4.1_H4.1_A4.1_[T5G]_[A6T]_F4.1_T4.1 (ssRNA)
RNA: B6 RNA with A24U, U28G
B18: Ia_S4_P4E.1_K4.1_C4.1_H4.1_[G2T]_A4.1_F4.1_T4.1 (ssRNA)
RNA: B6 RNA with A24U, G25U, U29A
B19: Ib_S4_P4E.1_K4.1_C4.1_H4.1_[G2T]_A4.1_[T7A]_F4.1_T4.1 (ssRNA)
RNA: B6 RNA with A24U, G25U, U29A, U30A
B20: Ib_S4_P4E.1_K4.1_C4.1_H4.1_[G2T]_A4.1_[T5C]_F4.1_T4.1 (ssRNA)
RNA: B6 RNA with A24U, G25U, U28C, U29A
B21: Ib_S4_P4E.1_K4.1_C4.1_H4.1_[G2A]_A4.1_[T7A]_F4.1_T4.1 (ssRNA)
RNA: B6 RNA with A24U, G25A, U29A, U30A
B22: Ib_S4_P4E.1_K4.1_C4.1_H4.1_[A4T]_A4.1_[T7G]_F4.1_T4.1 (ssRNA)
RNA: B6 RNA with A24U, A27U, U29A, U30G
B23: Ib_S4_P4E.1_K4.1_C4.1_H4.1_A4.1_[A6C]_[T7G]_F4.1_T4.1 (ssRNA)
RNA: B6 RNA with A24U, U29C, U30G
B24: Ib_S4_P4E.1_K4.1_C4.1_H4.1_[A4C]_A4.1_[T5A]_F4.1_T4.1 (ssRNA)
RNA: B6 RNA with A24U, A27C, U28A, U29A
B25: Ib_S4_P4E.1_K4.1_C4.1_H4.1_[A4T]_A4.1_[A6G]_F4.1_T4.1 (ssRNA)
RNA: B6 RNA with A24U, A27U, U29G
B26: Ib_S4_P4E.1_K4.1_C4.1_H4.1_[T3C]_A4.1_[T7A]_F4.1_T4.1 (ssRNA)
RNA: B6 RNA with A24U, U26C, U29A, U30A
B27: Ib_S4_P4E.1_K4.1_C4.1_H4.1_[T1G]_A4.1_[T7A]_F4.1_T4.1 (ssRNA)
RNA: B6 RNA with A24G, U29A, U30A
B28: Ib_S4_P4E.1_K4.1_C4.1_H4.1_[A4T]_A4.1_[T7C]_F4.1_T4.1 (ssRNA)
RNA: B6 RNA with A24U, A27U, U29A, U30C
B29: Ib_S4_P4E.1_K4.1_C4.1_H4.1_[A4C]_A4.1_[T7C]_F4.1_T4.1 (ssRNA)
RNA: B6 RNA with A24U, A27C, U29A, U30C
B30: Ib_S4_P4E.1_K4.1_C4.1_H4.1_[A4T]_A4.1_[T5A]_F4.1_T4.1 (ssRNA)
RNA: B6 RNA with A24U, A27U, U28A, U29A
B31: Ib_S4_P4E.1_K4.1_C4.1_H4.1_[A4C]_A4.1_[A6T]_F4.1_T4.1 (ssRNA)
RNA: B6 RNA with A24U, A27C
B32: Ib_S4_P4E.1_K4.1_C4.1_H4.1_[T3C]_A4.1_[A6T]_F4.1_T4.1 (ssRNA)
RNA: B6 RNA with A24U, U26C
B33: Ib_S4_P4E.1_K4.1_C4.1_H4.1_A4.1_[A6C]_[T7C]_F4.1_T4.1 (ssRNA)
RNA: B6 RNA with A24U, U29C, U30C
B34: Ic_S4_P4E.1_K4.1_C4.1_H4.1_A4.1_[T5C]_[T7G]_F4.1_T4.1 (ssRNA)
RNA: B6 RNA with A24U, U28C, U29A, U30G
B35: Ib_S4_P4E.1_K4.1_C4.1_H4.1_[T3C]_A4.1_[T7G]_F4.1_T4.1 (ssRNA)
RNA: B6 RNA with A24U, U26C, U29A, U30G
B36: Ib_S4_P4E.1_K4.1_C4.1_H4.1_A4.1_[A6T]_[T7A]_F4.1_T4.1 (ssRNA)
RNA: B6 RNA with A24U, U30A
B37: Ib_S4_P4E.1_K4.1_C4.1_H4.1_A4.1_[T5G]_[A6C]_F4.1_T4.1 (ssRNA)
RNA: B6 RNA with A24U, U28G, U29C
B38: Ia_S4_P4E.1_K4.1_C4.1_H4.1_A4.1_F4.1_[T8C]_T4.1 (ssRNA)
RNA: B6 RNA with A24U, U29A, U31C
B39: Ib_S4_P4E.1_K4.1_C4.1_H4.1_[A4C]_A4.1_[T7A]_F4.1_T4.1 (ssRNA)
RNA: B6 RNA with A24U, A27C, U29A, U30A
B40: Ib_S4_P4E.1_K4.1_C4.1_H4.1_[T3C]_A4.1_[T7C]_F4.1_T4.1 (ssRNA)
RNA: B6 RNA with A24U, U26C, U29A, U30C
B41: Ib_S4_P4E.1_K4.1_C4.1_H4.1_A4.1_[T5C]_[A6T]_F4.1_T4.1 (ssRNA)
RNA: B6 RNA with A24U, U28C
B42: Ia_S4_P4E.1_K4.1_C4.1_H4.1_A4.1_F4.1_[A9G]_T4.1 (ssRNA)
RNA: B6 RNA with A24U, U29A, A32G
B43: Ib_S4_P4E.1_K4.1_C4.1_H4.1_[G2T]_A4.1_[A6C]_F4.1_T4.1 (ssRNA)
RNA: B6 RNA with A24U, G25U, U29C
B44: Ib_S4_P4E.1_K4.1_C4.1_H4.1_A4.1_[A6C]_[T7A]_F4.1_T4.1 (ssRNA)
RNA: B6 RNA with A24U, U29C, U30A
B45: Ib_S4_P4E.1_K4.1_C4.1_H4.1_[A4C]_A4.1_[A6G]_F4.1_T4.1 (ssRNA)
RNA: B6 RNA with A24U, A27C, U29G
B46: Ia_S1_P3E.1_K3.1_C3.1_H3.1_[A4C]_A3.1_F3.1_T3.1 (ssRNA)
RNA: UCUCUUUGUCUAUAUCUCUU

Biological target: T1, PUF4 RNA-binding domain
Assay: Mg; RNA-MaP; 20 mM Na-HEPES pH 7.4, 30 mM KOAc, 0.75 mM MgCl2, 0.1% Tween-20, 5% glycerol, 0.1 mg/mL BSA, 2 mM DTT; 25 C; 0.0125-409.6 nM protein
Conditions: tags: N-His6-TEV cleaved; C-SNAP kept, Cy3B-labelled; label: tethered on chip by stalled RNA polymerase

Question: B1 was tested. Which Kd did it give?
Answer: 488 nM

Question: With B2 as the binder, how does the Kd read?
Answer: 37 nM

Question: With B3 as the binder, how does the Kd read?
Answer: 50.3 nM

Question: For B4, which Kd is on record?
Answer: 393 nM

Question: Which Kd does the source give for B5 here?
Answer: 36.4 nM

Question: For B6, which Kd is on record?
Answer: 1520 nM

Question: Which Kd does the source give for B7 here?
Answer: 227 nM

Question: Which Kd does the source give for B8 here?
Answer: 0.996 nM

Question: For B9, which Kd is on record?
Answer: 54.8 nM

Question: Which Kd does the source give for B10 here?
Answer: > 2300 nM

Question: How did the Kd turn out when B11 was run?
Answer: > 2300 nM

Question: B12 was tested. Which Kd did it give?
Answer: 5.79 nM

Question: With B13 as the binder, how does the Kd read?
Answer: 2.55 nM

Question: B14 was tested. Which Kd did it give?
Answer: 2.33 nM

Question: Which Kd does the source give for B15 here?
Answer: 10.8 nM

Question: For B16, which Kd is on record?
Answer: 110 nM

Question: For B17, which Kd is on record?
Answer: 5.58 nM

Question: B18 was tested. Which Kd did it give?
Answer: 253 nM

Question: With B19 as the binder, how does the Kd read?
Answer: 1200 nM

Question: With B20 as the binder, how does the Kd read?
Answer: 356 nM

Question: Which Kd does the source give for B21 here?
Answer: 75.2 nM

Question: Which Kd does the source give for B22 here?
Answer: 30.9 nM

Question: How did the Kd turn out when B23 was run?
Answer: 14.5 nM

Question: With B24 as the binder, how does the Kd read?
Answer: 48.4 nM

Question: For B25, which Kd is on record?
Answer: 64.1 nM

Question: With B26 as the binder, how does the Kd read?
Answer: 215 nM

Question: Which Kd does the source give for B27 here?
Answer: 332 nM

Question: With B28 as the binder, how does the Kd read?
Answer: 7.04 nM

Question: Which Kd does the source give for B29 here?
Answer: 12.9 nM

Question: For B30, which Kd is on record?
Answer: 13.4 nM

Question: Which Kd does the source give for B31 here?
Answer: 29.8 nM

Question: For B32, which Kd is on record?
Answer: 202 nM

Question: B33 was tested. Which Kd did it give?
Answer: 3.08 nM

Question: For B34, which Kd is on record?
Answer: 1.45 nM

Question: Which Kd does the source give for B35 here?
Answer: 434 nM

Question: B36 was tested. Which Kd did it give?
Answer: 1.36 nM

Question: B37 was tested. Which Kd did it give?
Answer: 4.82 nM

Question: For B38, which Kd is on record?
Answer: 9.03 nM

Question: How did the Kd turn out when B39 was run?
Answer: 19 nM

Question: With B40 as the binder, how does the Kd read?
Answer: 48.1 nM

Question: With B41 as the binder, how does the Kd read?
Answer: 1.04 nM

Question: Which Kd does the source give for B42 here?
Answer: 3.07 nM

Question: B43 was tested. Which Kd did it give?
Answer: > 2300 nM

Question: For B44, which Kd is on record?
Answer: 0.977 nM

Question: For B45, which Kd is on record?
Answer: 191 nM

Question: How did the Kd turn out when B46 was run?
Answer: 1170 nM
